Assay results as given in patent publication US11160869B2 (priority 2019, dated 2021).

How the values were obtained:
[1] = Pan-colonic administration via sigmoidoscopy in NHP: plasma PK and PD; format: in vivo, cynomolgus monkeys
Method: IL-10 delivery construct solution (at concentrations of 0.1, 0.3 and 1.0 mg/mL for the low, mid and high-dose groups respectively) was administered via the rectal route using sigmoidoscopy and a syringe connected to a spray nozzle with a 360° spray pattern. Serial biopsy samples were collected by sigmoidoscopy (pre-dose, 0.25, 0.5, 0.75, 8 and 24-28 hours post dose). Serial plasma samples from 0 min pre-dose to between 24-28 hours post-dose were collected for analysis for the IL-10 delivery construct.

[2] = Single oral capsule dose in NHP: plasma total IL-10; format: in vivo, Macaca fascicularis; conditions: for plasma total IL-10 Tmax: oral
Excerpt: IL-10 delivery constructs (SEQ ID NO: 5) and caffeine were filled by weight into size-1 Capsugel V-Cap Hydroxypropyl Methylcellulose (HPMC) capsules, for oral administration. The capsules were then successively coated in a pan spray coater with three layers of polymers. The first and third layer were thin coatings of HPMC, the first to seal the crease where the capsule shells come together, and the third to minimize sticking of the capsules to each other. The second coating layer was comprised of a 50:50 mixture of Eudragit® (Evonik Industries AG) enteric acrylic polymers FS 30 D and L 30 D-55, designed to dissolve and allow the capsule to open at pH 6.5.
The MSD Small Spot IL-10 plate was washed 3 times with PBST before use. Standards were prepared in Diluent 2 (MSD Cat No R51BB), and samples diluted 2-fold in Diluent 2. Standards and diluted samples were added to the assay plate and the plate incubated for 2 hours at room temperature with shaking. The plate was washed 3 times with PBST and 1× SULFO TAG anti-huIL-10. Antibody was added to the plate before incubation for 1 hour at room temperature with shaking. Following a wash step, 2×MSD Read buffer was added to the wells of the plate and the plate is read in the MSD Sector Imager 600 plate reader. The lower limit of detection of each analyte is defined as 2.5 standard deviation above background.
IL-10 delivery construct dosing at multiple fixed doses in non-naïve adult male Macaca fascicularis was conducted by Valley Biosystems (West Sacramento, Calif.). […] Dosing groups are described in TABLE 45.
Animals were fasted until after the 3 hour blood sample collection, when food was given. For dosing, the animals were manually restrained and a bite block placed between the jaws. A pill gun containing the dosing capsule was inserted into the back of the oral cavity and the capsule released. Up to 4 capsules were administered consecutively and a small amount of water given to induce swallowing. Once the administration of the dose was confirmed, the bite block was removed and the head released.
Blood samples were collected in K2EDTA tubes from each animal pre-dose and at 0.5, 1, 2, 3, 4, 5, 6, 7, 8, and 24 hours post-dose. Animals were returned to home cages following the 2-hour sample collection. Following physical restraint, blood samples were collected via direct venous puncture using a cephalic, femoral or saphenous vein, which were processed to plasma and stored frozen at −60° C. until shipment.

[3] = tested on: CD3+ cells and F4/80 macrophages; assay: Cellular target in lamina propria after oral gavage (CD3, F4/80, pSTAT3); format: in vivo, mouse; conditions: 40 min after oral gavage
[4] = tested on: cells of the lamina propria (LAMP1, CD11c, CD19, CD34, CD3); assay: Cell targeting in the lamina propria after intraluminal injection, immunofluorescence; format: in vivo, Wistar rats
Method: Rats were anesthetized using inhaled isoflurane and euthanized by inhaled CO2.
Experiments were initiated by making an approximately 4 cm abdominal incision to access the mid-jejunum region of the small intestine. After performing the incision, 50 μl of a prepared solution of the IL-10 delivery construct (typically at about 1 mg/mL) was injected into the intestinal lumen of an area devoid of foodstuffs through a 27-gauge needle using a 1 mL syringe. The mesentery adjacent to the site of injection was labeled with a marker and the intestine was returned to the abdominal cavity, with the incision being closed with clamps.
At specific times, the injected intestine was retrieved, surgically isolated and flushed with a 4° C. isotonic PBS. Washed, excised samples were fixed (4% paraformaldehyde in PBS) overnight at 4° C. before dehydration through graded series of ethanol/water solutions and overnight incubation in chloroform.
Dehydrated tissues were immersed in wax, sectioned, and mounted on poylysine slides and processed for antigen retrieval using sodium citrate. Afterward, sections were permeabilised with 0.2% Triton-X100 in PBS prior to thrice washing in PBS and blocking with 2% BSA+2% serum of the animal the secondary antibodies have been raised. Primary antibodies were diluted in 1% BSA, 0.1% Triton-X100 in PBS and incubated overnight at 4° C. in humidified air. Fluorescent secondary antibodies were diluted in 1% BSA, 0.1% Triton-X100 in PBS and incubated for 2 h at RT prior to processing for confocal microscopy. On occasion, an approximately 1 cm section of intestine at the injection site was collected for biochemical studies.
Proteins for specific cell types were examined by immuno-fluorescence using confocal microscopy. The IL-10 delivery construct components (the carrier, also referred to herein as “cholix,” and IL-10) were followed separately with either a polyclonal antibody (pAb) or monoclonal antibody (mAb) to IL-10 or a pAb or mAb to the carrier domain to allow co-localization with pAb or mAbs available (TABLE 46).

[5] = Liquid formulation screens: freeze/thaw, shear stress, short-term stability; format: physicochemical; conditions: 20 mg/mL, formulations of TABLE 11
Method: Formulation development to establish the lyophilization buffer was performed by initially screening the freeze-thaw and shear-induced liquid stability of the target construct following dialysis into combinations of several components outlined below:
Using these two formulations, in order to ensure that the UF/DF step would function as intended and that freezing at the beginning of the lyophilization process would be acceptable, a final liquid formulation freeze/thaw screen and short-term stability study was conducted at higher protein concentrations as outlined in TABLE 11 below.
This formulation was recommended to proceed as the buffer to be used in the UF/DF formulation step prior to lyophilization.

B1: IL-10 delivery construct: recombinant homodimeric fusion protein: N-terminal methionine, cholix386 domain, polyGlySer spacer, recombinant human IL-10 (protein)
chain: MVEEALNIFDECRSPCSLTPEPGKPIQSKLSIPSDVVLDEGVLYYSMTINDEQNDIKDEDKGESIITIGEFATVRATRHYVNQDAPFGVIHLDITTENGTKTYSYNRKEGEFAINWLVPIGEDSPASIKISVDELDQQRNIIEVPKLYSIDLDNQTLEQWKTQGNVSFSVTRPEHNIAISWPSVSYKAAQKEGSRHKRWAHWHTGLALCWLVPMDAIYNYITQQNCTLGDNWFGGSYETVAGTPKVITVKQGIEQKPVEQRIHFSKGNAMSALAAHRVCGVPLETLARSRKPRDLTDDLSCAYQAQNIVSLFVATRILFSHLDSVFTLNLDEQEPEVAERLSDLRRINENNPGMVTQVLTVARQIYNDYVTHHPGLTPEQTSAGAQAGGGGSGGGGSGGGGSPGQGTQSENSCTHFPGNLPNMLRDLRDAFSRVKTFFQMKDQLDNLLLKESLLEDFKGYLGCQALSEMIQFYLEEVMPQAENQDPDIKAHVNSLGENLKTLRLRLRRCHRFLPCENKSKAVEQVKNAFNKLQEKGIYKAMSEFDIFINYIEAYMTMKIRN
modifications: homodimer
plasma IL-10 delivery construct concentration relative to IL-10 ([1]; 3 mg and 10 mg doses): 10 fold lower | systemic IFN-γ, IL-1β, IL-2, IL-8 ([1]; 1, 3, 10 mg): did not lead to an increase | plasma IL-1Ra ([1]; 1, 3 and 10 mg): induction of the plasma concentration of IL-1Ra was observed at all three doses | systemic IL-6 ([1]; 3 and 10 mg groups): moderately induced | time of maximal plasma IL-1Ra concentration ([1]; cynomolgus monkey, in vivo): 3 to 4 h | time to detection of total IL-10 in plasma ([1]; single dose 1, 3 or 10 mg pan-colonic): ≤ 15 min | plasma total IL-10 Tmax ([2]; 1 mg): 4 h | plasma total IL-10 Tmax ([2]; 4 mg): 3 h | plasma total IL-10 Tmax ([2]; 20.5 mg): 2 h | plasma total IL-10 Tmax ([2]; 82 mg): 2 h | time at which plasma total IL-10 had returned to baseline ([2]; all doses): 6 hours post-dose | co-localization of pSTAT3 with CD3+ cells [3]: A moderate proportion of CD3+ cells | co-localization of pSTAT3 with F4/80 macrophages [3]: extensive co-localization with pSTAT3 | time by which an extensive amount reached the lamina propria ([4]; 1-minute pulse, intraluminal injection): ≤ 15 min | co-localization with LAMP1-positive lysosomes in enterocytes ([4]; 15-minute time course): little or no co-localization | co-localization with CD3 antigen (T lymphocytes) ([4]; lamina propria): striking co-localizations | co-localization with CD19-positive cells (B-lymphocytes) ([4]; lamina propria): failed to co-localize | co-localization with CD34-positive cells (endothelia) ([4]; lamina propria): failed to co-localize | co-localization with CD11c (dendritic cells) ([4]; rat jejunum lamina propria): did not co-localize with CD11c antigen to any striking extent | aggregation during freeze/thaw or at 1 week at 4 C [5]: did not show any significant increases in aggregation
